Residue numbers refer to the chain shown, from its start.
B1: SD-837152-afuc (antibody, V domains shown)
VH: QVQLVQSGAEVKKPGASVKVSCKASGYTFTSYDINWVRQAPGQRLEWMGWIFPGDGTSKYNEKFKGRVTITRDTSASTAYMELSSLRSEDTAVYYCARRLGSHWGQGTLVTVSS
VL: DIVLTQSPASLAVSPGQRATITCKASQSVDSDGDSYMNWYQQKPGQPPKLLIYGASNLESGVPARFSGSGSGTDFTLTINPVEANDTANYYCQQSHEYPFTFGQGTKLEIK
notes: afucosylated (FUT8 knock-out CHO)
B2: SD-649072-afuc (antibody, V domains shown)
VH: B1 VH with S102T, H103V
VL: B1 VL
notes: as for B1
B3: SD-127612-afuc (antibody, V domains shown)
VH: B1 VH
VL: B1 VL with A9D, Q17E, T22S, A64D, N80S, P81R, N85E, T87V, N89V, Q104G
notes: as for B1
B4: SD-233883-afuc (antibody, V domains shown)
VH: EVQLQQFGAELVKPGASVKLSCKASGYTFTSYDINWVRQRPEQGLEWIGWIFPGDGTSKYNEKFKGKATLSTDKSSSTAYMQLSRLTIEDSAVYFCARRLGSHWGQGSTLTVSS
VL: DIVLTQSPASLAVSLGQRATISCKASQSVDSDGDSYMNWYQQKPGQPPKLLIYGASNLESGIPARFSGSGSGTDFSLNIHPVEEEDAATYYCQQSHEYPFTFGGGTKLEIK
notes: afucosylated, made in FUT8 knock-out CHO cells; also called chimera
B5: SD-382591-afuc (antibody, V domains shown)
VH: B1 VH with Q1E, R44G, N61A, E62Q, K65Q, I70M, R72T, A76T, L109T
VL: DIQLTQSPSSLSASVGDRVTITCKASQSVDSDGDSYMNWYQQKPGKAPKLLIYGASNLESGVPSRFSGSGSGTDFTLTISSLQPEDFATYYCQQSHEYPFTFGQGTKLEIK
notes: as for B1
B6: SD-757052-afuc (antibody, V domains shown)
VH: EVQLVQSGAEVKKPGASVKLSCKASGYTFTSYDINWVRQAPGQGLEWIGWIFPGDGTSKYAQKFQGRATLTTDTSTSTAYMELSSLRSEDTAVYYCARRLGSHWGQGTTLTVSS
VL: B5 VL with V19A, V62I, L82V
notes: as for B1
B7: SD-844257-afuc (antibody, V domains shown)
VH: B6 VH
VL: B5 VL
notes: as for B1
B8: SD-710726-afuc (antibody, V domains shown)
VH: B6 VH with T74K
VL: B5 VL
notes: as for B1
B9: SD-638526-afuc (antibody, V domains shown)
VH: B6 VH with L20V, I48M, A68V, L70M, T74K, L110V
VL: B5 VL with V19A, V62I, L82V
notes: as for B1
B10: SD-741396-afuc (antibody, V domains shown)
VH: B6 VH with L20V, I48M, A68V, L70M, L110V
VL: B5 VL with V19A, V62I, L82V
notes: as for B1
B11: SD-577776-afuc (antibody, V domains shown)
VH: B6 VH with T74K
VL: B5 VL with V19A, V62I, L82V
notes: as for B1
B12: SD-787077-afuc (antibody, V domains shown)
VH: B6 VH with L20V, I48M, A68V, L70M, T74K, L110V
VL: B5 VL
notes: as for B1
B13: SD-633416-afuc (antibody, V domains shown)
VH: B6 VH with L20V, I48M, A68V, L70M, T72R, A79V, L110V
VL: B5 VL with L4M
notes: as for B1

Target: T1, wild type human EGFR1 on cells (F98 EGFR1; wild type U87MG; wild type FaDu) (human, UniProt P00533 25-1210)
T1 construct: whole, on cells
Assay: flow cytometry on wild type U87MG cells, anti-human IgG Fc Alexa Fluor 647, MFI

Row | binding result | Binder
1 | no binding | B1
2 | no binding | B2
3 | no binding | B3

Target: T2, human EGFRvIII, purified recombinant protein (Acro Biosystems Cat #EGI-H52H4) (human, UniProt P00533 25-645)
T2 construct: Bought protein; the deletion must be applied; also called truncated human EGFRvIII; huEGFRvIII
Assay: SPR (Carterra LSA), antibody captured on anti-human IgG, antigen injected, 1:1 Langmuir fit;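 further: EGFRvIII injected at five concentrations, fivefold serial dilution starting 500 nM, 5 min association then 15 min dissociation, double-referenced against interspot and buffer blank signals, global kinetic fit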

Row | Kd | koff | kon | Binder
4 | 40 nM | 0.003 s⁻¹ | 74000 M⁻¹ s⁻¹ | B4
5 | 131 nM | 0.0087 s⁻¹ | 66000 M⁻¹ s⁻¹ | B5
6 | 60 nM | 0.0026 s⁻¹ | 43000 M⁻¹ s⁻¹ | B1
7 | 33 nM | 0.0017 s⁻¹ | 51000 M⁻¹ s⁻¹ | B2
8 | 105 nM | 0.006 s⁻¹ | 57000 M⁻¹ s⁻¹ | B6
9 | 57 nM | 0.0024 s⁻¹ | 42000 M⁻¹ s⁻¹ | B3
10 | 90 nM | 0.0048 s⁻¹ | 53000 M⁻¹ s⁻¹ | B7
11 | 86 nM | 0.0043 s⁻¹ | 51000 M⁻¹ s⁻¹ | B8
12 | 122 nM | 0.0088 s⁻¹ | 73000 M⁻¹ s⁻¹ | B9
13 | 159 nM | 0.011 s⁻¹ | 66000 M⁻¹ s⁻¹ | B10
14 | 100 nM | 0.0058 s⁻¹ | 57000 M⁻¹ s⁻¹ | B11
15 | 108 nM | 0.0077 s⁻¹ | 71000 M⁻¹ s⁻¹ | B12
16 | 234 nM | 0.016 s⁻¹ | 67000 M⁻¹ s⁻¹ | B13

Target: T3, human EGFR, purified recombinant protein (Acro Biosystems Cat #EGR-H5222) (human, UniProt P00533 25-645)
T3 construct: Bought protein; also called EGFR1; full length human EGFR1
Assay: SPR (Carterra LSA), antibody captured on anti-human IgG, EGFR1 injected in a 5-fold series from 500 nM

Row | binding result | Binder
17 | no binding | B1
18 | no binding | B7
19 | no binding | B12

Target: T3, human EGFR, purified recombinant …
Assay: ELISA, plate coated with human EGFR1, anti-human IgG-HRP, OD450

Row | binding result | Binder
20 | no binding | B2

Target: T4, human EGFRvIII overexpressed on cells (F98npEGFRvIII, U87MG-EGFRvIII, FaDu-EGFRvIII) (human, UniProt P00533 25-1210)
Assay: cell-based or functional assay

Row | ADCC EC50 (nM), F98 EGFRvIII cells with PBMC | Binder
21 | 0.0082 nM | B4
22 | 0.106 nM | B5
23 | 0.0562 nM | B6
24 | 0.0738 nM | B7
25 | 0.0168 nM | B8
26 | 0.111 nM | B9
27 | 0.123 nM | B10
28 | 0.0687 nM | B11
29 | 0.0605 nM | B12
30 | 0.289 nM | B13

Target: T3, human EGFR, purified recombinant …
Assay: ELISA, plate coated with human EGFR1, anti-human IgG-HRP, OD450
Remark: another data set of the same source

Row | binding result | Binder
31 | no binding | B4
32 | no binding | B5
33 | no binding | B9
34 | no binding | B11
35 | no binding | B13

Target: T4, human EGFRvIII overexpressed on cells …
Assay: flow cytometry, F98npEGFRvIII cells, n=3

Row | EC50 | Binder
36 | 2.07 nM | B4
37 | 4.13 nM | B5
38 | 4.17 nM | B6
39 | 3.85 nM | B7
40 | 4.02 nM | B8
41 | 3.21 nM | B9
42 | 5.12 nM | B10
43 | 3.46 nM | B11
44 | 3.91 nM | B12
45 | 13.8 nM | B13

Target: T4, human EGFRvIII overexpressed on cells …
Assay: flow cytometry, FaDu-EGFRvIII cells, n=3

Row | EC50 | Binder
46 | 3.13 nM | B4
47 | 4.98 nM | B1
48 | 3.86 nM | B2
49 | 5.27 nM | B3

Target: T2, human EGFRvIII, purified recombinant …
Assay: ELISA, antigen coated at 1 ug/mL, anti-human IgG-HRP, n=3

Row | EC50 | Binder
50 | 0.144 nM | B4
51 | 0.103 nM | B5
52 | 0.155 nM | B1
53 | 0.129 nM | B2
54 | 0.112 nM | B6
55 | 0.156 nM | B3
56 | 0.111 nM | B7
57 | 0.137 nM | B8
58 | 0.102 nM | B9
59 | 0.091 nM | B10
60 | 0.122 nM | B11
61 | 0.126 nM | B12
62 | 0.121 nM | B13

Target: T3, human EGFR, purified recombinant …
Assay: SPR (Carterra LSA), antibody captured on anti-human IgG, EGFR1 injected in a 5-fold series from 500 nM
Remark: another data set of the same source

Row | binding result | Binder
63 | no binding | B3

Target: T4, human EGFRvIII overexpressed on cells …
Assay: flow cytometry, U87MG-EGFRvIII cells, n=3

Row | EC50 | Binder
64 | 4.05 nM | B4
65 | 5.75 nM | B1
66 | 4.33 nM | B2
67 | 6.05 nM | B3

Target: T4, human EGFRvIII overexpressed on cells …
Assay: cell-based or functional assay
Remark: another data set of the same source

Row | ADCC EC50 (nM), U87MG-EGFRvIII cells with PBMC | Binder
68 | 0.0026 nM | B4
69 | 0.0036 nM | B1
70 | 0.0066 nM | B2
71 | 0.0047 nM | B3

Target: T1, wild type human EGFR1 on cells (F98 …)
Assay: flow cytometry on F98 EGFR1 cells, anti-human IgG Fc Alexa Fluor 647, MFI

Row | binding result | Binder
72 | no binding | B4
73 | no binding | B5
74 | no binding | B6
75 | no binding | B7
76 | no binding | B8
77 | no binding | B9
78 | no binding | B10
79 | no binding | B11
80 | no binding | B12
81 | no binding | B13

Target: T4, human EGFRvIII overexpressed on cells …
Assay: cell-based or functional assay
Remark: another data set of the same source

Row | ADCC EC50 (nM), FaDu-EGFRvIII cells with PBMC | Binder
82 | 0.0039 nM | B4
83 | 0.0058 nM | B1
84 | 0.0033 nM | B2
85 | 0.0051 nM | B3

Target: T3, human EGFR, purified recombinant …
Assay: SPR (Carterra LSA), antibody captured on anti-human IgG, EGFR1 injected in a 5-fold series from 500 nM
Remark: another data set of the same source

Row | binding result | Binder
86 | no binding | B6
87 | no binding | B8
88 | no binding | B10
